The source of these data is patent US20100151486A1, “OSTEOPONTIN FUNCTIONAL EPITOPES, MONOCLONAL ANTIBODIES AGAINST THE EPITOPES AND USES THEREOF” (SHANGHAI NATIONAL ENGINEERING RESEARCH CENTER OF A, priority 2007, published 2010).

The test system of experiment [1] is MDA-MB-435s cells. The experiment in a line: Clone formation on soft agar assay. Particulars: antibody 25 μg/ml every other day; 3 weeks. The format is cell-based. On the procedure:
The assay of clone formation on soft agar was conducted using a double-layer soft agar system. 2.5% melted agar was mixed the DMEM medium pre-warmed at 37° C. to formulate a 0.5% agar solution, which was then diluted with DMEM to a 0.3% agar solution. To each well of a 24-well plate was added 500 μl of a 0.5% agar solution, which was allowed to gel at 4° C., and then kept warm in an incubator at 37°C. The MDA-MB-435s cells were detached using 0.2% .EDTA and suspended in the 0.3% agar solution at the concentration of 5×10^3 cells/ml. 500 μl of the cell suspension was added each well and left to gel. From the second day, the cells were respectively treated with 1A12, c1A12, h1A12 or the irrelevant antibody (23C3D3) (25 μg/ml) every other day. After 3 weeks, the colony formation ability was evaluated by measuring the size of colonies containing more than 10 cells.

In another experiment the test system is HUVECs. The experiment is described as follows: Formation of capillary-like structure in HUVECs on matrigel. The format is cell-based, human. The method, then:
HUVECs were cultured in the M200 medium containing LCGS to 80% confluence. The matrigel stored at −20° C. was took out the day before experiment and naturally thawed at 4° C. for 3 to 12 hours. To each well of a 96-welt plate was added […] using a pre-cooled pipet with carefully removing the bubbles, wherein the whole procedure was carried on ice. The loaded plate was incubated at 37° C. for 1 hour to gel the matrigel. To each well, 100 μl HUVECs (2×10^4/well) was gently added onto the surface of matrigel. To the treatment groups were further added the anti-hOPN antibodies 1A12, c1A12 and h1A12. The plate was incubated at 37° C. for […], and the formation of the capillary-like structure was observed 6 hours after.

Experiment [2] has as its system MDA-MB-435s cells. The experiment in a line: Cell adhesion assay on hOPN-coated plate. The format is cell-based. Particulars: antibody 25 μg/ml; plate coated with 10 μg/ml hOPN; 2 hrs. On the procedure:
MDA-MB-435s was purchased from the Institute of Cell Biology of Chinese Academy of Sciences (Shanghai, China), and 23C3D3 was used as the irrelevant antibody.
A 96-well plate (Greiner) was coated with 10 μg/ml hOPN (prepared in Example 3) or BSA (SIGMA) at 4° C. overnight, and was then blocked with 1% BSA/PBS at 37° C. for 1 hour to block any non-specific binding sites. The MDA-MB-435s cells were detached using 0.2% EDTA and then re-suspended in 0.25% BSA/DMEM at the concentration of 5×10^5 cells/ml. To each well, 100 μl (5×10^4) MDA-MB-435s cells were added in the presence of various anti-OPN antibodies (25 μg/ml) murine anti-human OPN antibody 1A12, the human-murine chimeric antibody c 1A12 or the humanized antibody h1A12 as treatment groups and the irrelevant antibody 23C3 as control (25 μg/ml). After incubation at 37° C. for 2 hrs, the medium was removed and washed twice with PBS gently. The adherent cells were fixed in 1% formaldehyde at 4° C. for 10 minutes, stained with 0.5% crystal violet after washed with PBS and lysed with 2% Triton X-100 (50 μl). The absorbance was measured at 595 nm.

The next experiment concerns rabbit cornea. The experiment in a line: OPN-induced rabbit corneal neovascularization. The format is in vivo. Particulars: pellet with 200 ng hOPN and 1 μg antibody. The method, then: The Hydron powder was dissolved in anhydrous ethanol under sterile condition to the final concentration of 12% (w/v), and dissolved with agitation under 37° C. to formulate the 12% Hydron cast solution, which was then stored at room temperature. A quota of sucralfate powder formulated in sterile Milli Q water under sterile conditions as a suspension with the final concentration of 100 μg/μl, which was stored at 4° C., and vortexed to homogeneous intermediately before use. Sustained-release pellets were prepared to each containing 200 ng hOPN and 50 μg sucralfate and, for the antibody groups, 1 μg anti-OPN antibodies, and for the control, the irrelevant antibody. The 12% Flydron east solution and the hOPN-sucralfate-PBS blend were mixed as the ratio of 1:1 (volume ratio), vortexed for 1 min. Then 5 μl mixed Hydron-sucralfate-hOPN solution was added onto a sterilized Parafilm surface, dried for about 30 min on a super-clean bench for a complete polymerization. The polymers were then shaped into uniform circular granules with a 2 mm diameter using an eye tweezers. The granules were stored at −20′C. Animals were grouped in the same way as in Experiment II-3, each group consisting of four eyes.
The rabbit was anesthetized at ear edge vein with 3% sodium pentobarbital (1 ml/kg body weight) and on both corneal surfaces with 1% tetracaine. The thickness of the cornea was measured using an ultrasonic cornea thickness gauge. A 3 mm half-depth incision was made at the center of the cornea using an ophthalmic knife, and an undermining tunnel toward the 12 o'clock or 3 o'clock position on the corneoscleral margin was made using a 2 mm-wide scleral tunnel knife, whereby the tunnel lied within the corneal layer with the top of the tunnel about 1 mm distant from the limbus corneae. The Hydron/sucralfate sustained-release pellet was implanted into the top of tunnel using micro-tweezers. The cuts were treated with chlortetracycline eye ointment after the surgery. From Day 1 after the surgery, the double-blinded observer observed the rabbit conical neovascularization under the slit-lamp each day, until the Day 10, The length (VL) and the vascular clock angle (CN, 30°=1CN) of the longest vessel were measured, and the area of neovascularization was calculated according to the following formula:
Area (mm^2)=0.2×π×VL (mm)×CN (mm)

In experiment [3] the test system is chicken embryo chorioallantoic membrane (CAM). The experiment is described as follows: Chicken embryo chorioallantoic membrane (CAM) angiogenesis assay. The format is in vivo. Particulars: human OPN 250 ng + antibody 1 μg; P<0.01. The method, then: The Leghorn chicken embryos were purchased from the farm with a fertilization rate of >90%. The 8-day old chicken embryos were selected. After sterilization, a small hole was drilled in the center of the top air chamber of the embryo with a lancet, the surrounding shell with the inner membrane was removed with caution to create an opening of 1 cm×1 cm. Then the following analytes/gelatin sponge were added to the CAM surface: i) PBS; ii) HOPN; iii) human OPN (250 ng); iv) human OPN (250 ng)+the irrelevant antibody as control (1 μg); v) human OPN (250 ng)+the murine anti-OPN antibody 1A12 (1 μg); vi) human OPN (250 ng)+the murine-human chimeric anti-OPN antibody c1A12 (1 μg); vii) human OPN (250 ng)+the humanized anti-OPN antibody h1A1.2 (1 μg).
The analytes/gelatin sponge were added to the CAM surface, which was far away from the already-formed dense vascular network. […] The number of vessels within an area edging 2 mm from the edges of the carrier slide was counted under a dissecting microscope to study the angiogenesis using the “vascular index” (Ribatti, D., B. Nico, A. Vacca et al., The gelatin sponge-chorioallantoic membrane assay. Nat Protoc, 2006, 1 (1): 85-91). The number of vessel was counted at the same magnification under the dissecting microscope. The result in each sample group was expressed as “mean±standard deviation (x±S)”. […]

The mark [4] stands for this setting: relative to irrelevant antibody group, P<0,01.

B1: 1A12: murine anti-hOPN mAb; VH SEQ ID NO: 4, VL SEQ ID NO: 6; from hybridoma 1A12 (antibody, V domains shown)
VH: QVQLEQSGPELVKPGASVKMSCKSSGYTFTTYVMHWVKQKPGQGLEWIGYINPYNDGSKYNEKFKGKATLTSDKSSNTAYMELSSLTSEDSAVYYCASHYGGSPAYWGQGTLVTVSA
VL: DILMTQTPLSLPVSLGDQASISCRSSQSLVHSNGNTYLHWYLQKPGQSPKLLIYKVSNRFSGVPDRFSGSGSGTDFTLKISRVEAEDLGVYFCSQSTHVPWTFGGGTKLEIKR
modifications: amino acid sequence of the heavy chain variable region in 1A12; amino acid sequence of the light chain variable region in 1A12
notes: murine anti-hOPN mAb; from hybridoma 1A12
With B1, the “inhibition of clone size formed by MDA-MB-435s cells on soft agar” value in the experiment on MDA-MB-435s cells [1] is “could inhibit the clone size”. The “potency of forming the capillary-like structure in HUVECs” value in the experiment with HUVECs is “reduce”. Further, the “blocking of the binding between MDA-MB-435s cells and hOPN” value in the experiment with MDA-MB-435s cells [2] is on record as “effectively block”. Also, the “corneal neovascularization relative to the OPN group” value in the experiment on rabbit cornea is recorded as “significantly reduced”. In the experiment on rabbit cornea (setting [4]), the area of neovascularization result is given as “significantly shrunk” and the “length of the newly generated blood vessels” value is reported as “significantly reduced”. For the same molecule, in experiment [3], the “inhibition of OPN-induced angiogenesis in CAM” value is “significantly inhibit”.
